Experimental data taken from the nanobody polyreactivity screen of Harvey et al. (2022).

Assay: yeast display, Sf9 membrane polyspecificity reagent, FACS + sequencing; frameworks hold sequencing errors
Summary of the method: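 A nanobody's polyreactivity label depends on the gate it was sorted from. Yeast display cells were stained with 10% biotinylated, detergent-solubilized Sf9 membrane reagent for 1 hour at 4 °C, enriched on streptavidin microbeads and sorted by FACS. The low and high (top ~1%) gates were set on anti-HA fluorescence for expression and streptavidin fluorescence for reagent binding.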

| Sequence | polyreactivity (PSR sort gate) |
| --- | --- |
| QVQLVESGGGLVQAGGSLRLSCAASGRIFTQYAMGWYRQAPGKERELVAAINASDGSTYYADSVKGRFTISRDNAKNTVYLQMNSLKPEDTAVYYCAGYAYNAIEYGYWGQGTQVTVSS | low polyreactivity |
| QVQLVESGGGLVQAGGSLRLSCAASGRIFTRNAMGWYRQAPGKEREFVAAISSSGSSTYFADSVKGRFTISRDNAKNTVYLQMNSLKPEDTAVYYCAARVTSPVSHDRVDYWGQGTQVTVSS | high polyreactivity |
| QVQLVESGGGLVQAGGSLRLSCAASGRIFTRNAMGWYRQAPGKEREFVAAISWSGGSTYYADSVKGRFTISRDNAKNTFYLQMNSLKPEDTAVYFCAAKNSGGYVSWYDYWGQGTQVTVSS | low polyreactivity |
| QVQLVESGGGLVQAGGSLRLSCAASGRIFTRNAMGWYRQAPGKERELVATISAGGGRTSYADSVKGRFTISRDNAKNTVELQMNSLKPEDTAVYYCAARGQVGYYWGQGTQVTVSS | high polyreactivity |
| QVQLVESGGGLVQAGGSLRLSCAASGRIFTRNAMGWYRQAPGKERELVATISAGGGRTSYADSVKGRFTISRDNAKNTVYLQMNSLKPEDTAVYYCAARGQVGYYWGQGTQVTVSS | high polyreactivity |
| QVQLVESGGGLVQAGGSLRLSCAASGRIFTRNGMGWYRQAPGKERELVAASTRGGRTNYADSVKGRFTISRDNAKNTVYLQMNSLKPEDTAVYYCAAGFPWSYYGSYDYWGQGTQVTVSS | high polyreactivity |
| QVQLVESGGGLVQAGGSLRLSCAASGRIFTRNVMGWYRQAPGKERELVARINSGGRTYYADSVKGRFTISRDNAKNTVYLQMNSLKPEDTAVYYCAVPFYWYSPMDSWGQGTQVTVSS | high polyreactivity |
| QVQLVESGGGLVQAGGSLRLSCAASGRIFTRYAMGWNRQAPGKETELGAAITASGGRTYYADSVKGRFTISRDNAKNTVYLQMNSLKPEDTAVYYCAATYHRYYETQDSYDYWGQGTQLTVSS | high polyreactivity |
| QVQLVESGGGLVQAGGSLRLSCAASGRIFTRYAMGWYRQAPGKERELVAAITYNGGSTYYADSVKGRFTISRDNAKNTVYLQMNSLKPEDTAVYYCNAVYLSWFGLYAGFDYWGQGTQVTVSS | high polyreactivity |
| QVQLVESGGGLVQAGGSLRLSCAASGRIFTRYAMGWYRQAPGKERELVATITRRGGSTYYADSVKGRFTISRDNAKNTVYLQMNSLKPEDTAVYYCAKDRTTSSFGEYDYWGQGTQVTVSS | high polyreactivity |
| QVQLVESGGGLVQAGGSLRLSCAASGRIFTRYAMGWYRQAPGKERELVSAISSGGSTYYADSVKGRFTISRDNAKNTVYLQMNSLKPEDTAVYYCAAKTRPQRTYSTRQQMNYWGQGTQVTVSS | high polyreactivity |
| QVQLVESGGGLVQAGGSLRLSCAASGRIFTSYTMGWYRQAPGKERELVAAISASGASTYYADSVKGRFTISRDNAKNTVYLQMNSLKPEDSAVYYCATVRPRERRGYWGQGTQVTVSS | high polyreactivity |
| QVQLVESGGGLVQAGGSLRLSCAASGRIFTSYVMGWYRQAPGKERELVAAITSSGGSTYYADSVKGRFTISRDNAKNTVYLQMNSLKPEDTAVYYCAAATRGSGRRYDYWGQGTQVTVSS | high polyreactivity |
| QVQLVESGGGLVQAGGSLRLSCAASGRIFTTNTMGWYRQAPGKERELVARITYSGTSTYYADSVKGRFTISRDNAKNTVYLQMNSLKPEDTAVYYCAAKVWWRKYLLQDYYYWGQGTQVTVSS | high polyreactivity |
| QVQLVESGGGLVQAGGSLRLSCAASGRIFTTYAMGWYRQAPGKERELVARIRWRGGSTYYADSVKGRFTISRDNAKNTVYLKMNSLKPEDTAVYYCNADKYYGFDYWGQGTQVTVSS | high polyreactivity |
| QVQLVESGGGLVQAGGSLRLSCAASGRIFTTYVMGWYRQAPGKERELVAAISARGSTYYADSVKGRFTISRDNAKNTVYLQMNSLKPEDTAVYYCAAGHRLPVYYGYPRATYNYWGQGTQVTVSS | low polyreactivity |
| QVQLVESGGGLVQAGGSLRLSCAASGRIFTWYAMGWYRQAPGKERELVAAINASGGGTYADSVKGRFTISRDNAKNTVYLQMNSLKPEDTAVYYCNADIRAFYLYYSEGFSWRLDYWGQGTQVTVSS | high polyreactivity |
| QVQLVESGGGLVQAGGSLRLSCAASGRIFTWYAMGWYRQAPGKERELVATISTGGSTNYADSVKGRFTISRDNAKNTVYLQMNSLKPEDTAVYYCAAKWPWSPNAFYYWGQGTQVTVSS | high polyreactivity |
| QVQLVESGGGLVQAGGSLRLSCAASGRIFTYNAMGWSRQAPGKERELVAANTSSGGSTYYADSVKGRFTISRDYAKNTVYLQMNSLKPEDTAVYYCATVRRGRDYWGQGTQVTVSS | high polyreactivity |
| QVQLVESGGGLVQAGGSLRLSCAASGRIFTYNPMGWYRQAPGKERELVAAISTRGGTTRYADSVKGRFTISRDNAKNTVYLQMNSLKPEDTAVYSCNAVSRGSRWDGLVRLDYWGQGTQVTVSS | high polyreactivity |
| QVQLVESGGGLVQAGGSLRLSCAASGRIFTYNPMGWYRQAPGKERELVAVISRRGGSTYYADSVKGRFTISRDNAKNTVYLQMNSLKPEDTAVYYCAADLPSYPYEYWGQGTQVTVSS | low polyreactivity |
| QVQLVESGGGLVQAGGSLRLSCAASGRIFTYYAMGWYIQAPGKERELVASITGSGGSTDYADSVKGRFTISRDNAKNTVYLQRNSLKPEDTAVYYCAADGLSYGPLYNYDYWGQGTQVTVSS | low polyreactivity |

| Sequence | polyreactivity (PSR sort gate) |
| --- | --- |
| QVQLVESGGGLVQAGGSLRLSCAASGRIFTYYAMGWYRQAPGKERELVAAISSGGSTYYADSGKGRFTISRDNAKNTVSLQMNSLKPEDTAVYYCAADTIYYFPYDYWGQGTQVTVSS | high polyreactivity |
| QVQLVESGGGLVQAGGSLRLSCAASGRIFTYYAMGWYRQAPGKERELVAAITSGGGSTSYADSVKGRFTISRDNAKNTVYLQMNSLKPEDTAVYYCATRRPFYGHNTYYWYNYWGQGTQVTVSS | high polyreactivity |
| QVQLVESGGGLVQAGGSLRLSCAASGRIFTYYGMGWYRQAPGKERELVAAISWSGGSTYYADSVKGRFTISRDNAKNTVYLQMNSLKPVDTAVYYCNAASRYGGDYWGQGTQVTVSS | high polyreactivity |
| QVQLVESGGGLVQAGGSLRLSCAASGRIFVDNAMGWYRQAPGKERELVAAINYSGGGTYYADSVKGRFTISRDNAKNTVYLQMNSLKPEDTAVYYCAADSDSFWGVPSYYWGQGTQVTVSS | low polyreactivity |
| QVQLVESGGGLVQAGGSLRLSCAASGRIFVFYAMGWYRQAPGKERELVAAITASSTRTYYADSVKGRFTISRDNAKNTFYLQMNSLKPEDTAVYYCAADRYYWGQGTQVTVSS | low polyreactivity |
| QVQLVESGGGLVQAGGSLRLSCAASGRIFVGNAKGWYRQAPRKERELVAAIDESGGSTYYADSVKGRFTISRDNAKTTVYLQMNSLKPEDTAGYYCNAVWFWLRYYKYEYWGQGTQVTVSS | high polyreactivity |
| QVQLVESGGGLVQAGGSLRLSCAASGRIFVGNAMGWYRQAPGKERELVAAITRSGSRTYYADSVKGRFTISRDNAKNTVYLQMISLKPEDTAVYYCNAPIRTWPGYDYWGQGTQVTVSS | high polyreactivity |
| QVQLVESGGGLVQAGGSLRLSCAASGRIFVGNTMGWYRQAPGKERELVAAITRSGGSTYYADSAKGRFTISRDNAKNTVYLQMNSLKPEDTAVYYCAARRRGDYWGQGTQVTVSS | high polyreactivity |
| QVQLVESGGGLVQAGGSLRLSCAASGRIFVGYAIGWYRQAPGKERELVAAINRSGSSTYYADSVKGRYTISRDNAKNTFYLQMNSLKPEDTAVYYCNARSGNRYGPRYDYWGQGTQVTVSS | high polyreactivity |
| QVQLVESGGGLVQAGGSLRLSCAASGRIFVGYAMGWYIQAPGKERELVAAINRSGSSTYYADSVKGRFTISRDNAKNTVYLQMNRLKPEDTAVYYCNARSGNRYGPRYDYWGQGTQVTVSS | high polyreactivity |
| QVQLVESGGGLVQAGGSLRLSCAASGRIFVGYAMGWYRQAPGKERELVAAISSDGGSTYYADSVKGRFTISRDNAKNTVYLQMNSLKPEDTAVYYCNAYYGRFPYYADDYWGQGTQVTVSS | low polyreactivity |
| QVQLVESGGGLVQAGGSLRLSCAASGRIFVGYYTMGWYRQAPGKERELVASITWGGGRTYYADSVKGRFTISRDNAKNTVYLQMNSLKPEDTAVYYCAAGYPANYYYLGQGTQVTVSS | high polyreactivity |
| QVQLVESGGGLVQAGGSLRLSCAASGRIFVHNAMGWYRQAPRKERELVAAISWSGGSTYYADSVKGRFTISRDNAKNTVYLQMNSLKPEDTAVYYCNALDPLYFRYDYWGQGTQVTVSS | low polyreactivity |
| QVQLVESGGGLVQAGGSLRLSCAASGRIFVHYAMGWYRQAPGKERELVAAISRSGGSTYYADSVKGRFTISRDTAKNTVYLQMNSLKPEDTAVYYCNTYPLSQFGPYWSGYDYWGQGTQVTVSS | high polyreactivity |
| QVQLVESGGGLVQAGGSLRLSCAASGRIFVINAMGWYRQAPGKERELVAAISQSGGSTYYADSVKGRFTISRDNAKNTVYLQMNSLKPEDTAVYYCNALSNVPYDYWGQGTQVTVSS | low polyreactivity |
| QVQLVESGGGLVQAGGSLRLSCAASGRIFVINAMVWYRQAPGKERELVAGITSSGNTNYADSVKGRFTISRDNAKNTVYLQMNSLNPEDTAVYYCNAQVYLTWLTYWLYYPPNDYWGQGTQVTVSS | low polyreactivity |
| QVQLVESGGGLVQAGGSLRLSCAASGRIFVIYAMGWYRQAPGKERELVAVINDDGSTNYADSVKGRFTISRDNAKNTVYLQMNSLKPEDTAVYYCAARGGRPLIHHWPWYSWKYDYWGQGTQVTVSS | low polyreactivity |
| QVQLVESGGGLVQAGGSLRLSCAASGRIFVKYAMGWYRQAPGKERELVAAIRSGGSTYYADSVKGRFTISRDNAKNTVYLQMNRLKPEDTAVYYCAAERNKHHYYTEPYDYWGQGTQVTVSS | low polyreactivity |
| QVQLVESGGGLVQAGGSLRLSCAASGRIFVKYAMGWYRQARGKESELVAAISKSGGSTYYADSVKGRFTISRDNAKTTVYLQINILKPEDTAVYYCAADEYYQVSAYDYWGQGTQVTVSS | low polyreactivity |
| QVQLVESGGGLVQAGGSLRLSCAASGRIFVLNAMGWYRQAPGKERELVAAISGSGSRTYYADSVKGRFTISRDNAKNTVYLQMNSLKPEDTAVYYCNTVSRRSEHTYDYWGQGTQVTVSS | high polyreactivity |
| QVQLVESGGGLVQAGGSLRLSCAASGRIFVLNAMGWYRQAPGKERELVAGITDGGSTNYADSVKGRFTISRDNAKNTVYLEMNSLKPEDTAVYYCAAVVYEYLYDFQAFVEDAGYYWGQGTQVTVSS | low polyreactivity |
